# Laboratory results reported in paper PMC2686405 (The Journal of Cell Biology, 2009).
# B1: complexin-1(26-83) (domain or fragment)
# chain: KDPDAAKKEEERQEALRQAEEERKAKYAKMEAEREVMRQGIRDKYGIKKKEEREAEAQ
# Molecular target: SNARE complex containing syntaxin-1A(2-253), synaptobrevin-2(29-93), SNAP-25(11-82) and SNAP-25(141-203) (rat | human, UniProt P32851;P63045;P60880)
# Test: SEC
# Sequence of SNARE complex containing syntaxin-1A(2-253), synaptobrevin-2(29-93), SNAP-25(11-82) and SNAP-25(141-203) (P32851 2-253, chain 1 of 4): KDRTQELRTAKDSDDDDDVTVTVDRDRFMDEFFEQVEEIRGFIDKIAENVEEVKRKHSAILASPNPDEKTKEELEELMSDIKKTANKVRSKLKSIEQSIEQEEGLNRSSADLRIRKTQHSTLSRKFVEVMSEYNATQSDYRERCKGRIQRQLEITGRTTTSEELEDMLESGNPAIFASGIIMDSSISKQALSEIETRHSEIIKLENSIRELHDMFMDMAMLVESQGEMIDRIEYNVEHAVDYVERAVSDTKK
# Sequence of SNARE complex containing syntaxin-1A(2-253), synaptobrevin-2(29-93), SNAP-25(11-82) and SNAP-25(141-203) (P63045 29-93, chain 2 of 4): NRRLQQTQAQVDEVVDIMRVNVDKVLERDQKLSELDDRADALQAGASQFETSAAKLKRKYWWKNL
# Sequence of SNARE complex containing syntaxin-1A(2-253), synaptobrevin-2(29-93), SNAP-25(11-82) and SNAP-25(141-203) (P60880 11-82, chain 3 of 4): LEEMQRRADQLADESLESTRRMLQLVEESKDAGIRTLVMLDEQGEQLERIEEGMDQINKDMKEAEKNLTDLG
# Sequence of SNARE complex containing syntaxin-1A(2-253), synaptobrevin-2(29-93), SNAP-25(11-82) and SNAP-25(141-203) (P60880 141-203, chain 4 of 4): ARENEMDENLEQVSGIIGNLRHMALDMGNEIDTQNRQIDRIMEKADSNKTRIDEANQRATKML
binder,measurement,value
B1,binding result,binds
